The results in this text go back to article PMC12626770 (Protein Science : A Publication of the Protein Society, 2025).

In this assay the target is T1, Human transferrin receptor 1 (TfR), avi-tagged, biotinylated (human, UniProt P02786 101-760).
T1 construct: also called biotinylated TfR
Nature of the assay: flow cytometry on cells; yeast surface display titration; varied TfR concentration, normalized MFU fitted non-linearly, averaged from three experiments; apparent Kd. The conditions noted are these: one partner purified. On the technique in general: A flow cytometer gives signals particle by particle.

T1 sequence (P02786 101-760): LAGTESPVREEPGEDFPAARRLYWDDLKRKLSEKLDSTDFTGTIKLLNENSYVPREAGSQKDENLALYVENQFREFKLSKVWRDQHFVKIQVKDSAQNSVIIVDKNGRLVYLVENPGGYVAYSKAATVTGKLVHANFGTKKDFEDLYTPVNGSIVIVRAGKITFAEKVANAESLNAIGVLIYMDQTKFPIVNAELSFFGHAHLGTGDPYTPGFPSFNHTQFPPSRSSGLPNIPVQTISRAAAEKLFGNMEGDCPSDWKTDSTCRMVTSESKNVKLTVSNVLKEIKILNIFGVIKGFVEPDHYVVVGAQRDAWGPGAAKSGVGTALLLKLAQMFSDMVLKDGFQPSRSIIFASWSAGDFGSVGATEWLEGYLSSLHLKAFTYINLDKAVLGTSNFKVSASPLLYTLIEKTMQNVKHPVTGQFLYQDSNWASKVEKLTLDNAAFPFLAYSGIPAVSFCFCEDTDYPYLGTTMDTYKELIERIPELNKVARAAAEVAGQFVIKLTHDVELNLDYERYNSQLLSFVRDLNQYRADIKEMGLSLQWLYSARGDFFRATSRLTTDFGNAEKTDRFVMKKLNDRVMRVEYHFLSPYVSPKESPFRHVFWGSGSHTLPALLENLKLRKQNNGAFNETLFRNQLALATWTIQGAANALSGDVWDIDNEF

B1: TB14.3A T78I (S4.4), yeast surface displayed (designed binder)
chain: MEKRFYVLLIIVEDRKKAYRQVNELLHNFSEYILLRMGQDHRERYQSTIALVLKVDNDAIGALSGKLGQISGVKVMTIPEKRGSLE
modifications: biotinylated
In the case of B1, the Kd amounted to 305 ± 55 nM.
